Legend:
c-Src SH2 = assay: SH2 binding enrichment of the phosphorylated peptide, bacterial display (enrichment ratio); higher = better substrate or ligand; peptides without Tyr show the background
SHP2-C SH2 = assay: as above
Grb2 SH2 = Grb2 SH2 (UniProt P62993); assay: as above
EPHB2 = EPHB2 (UniProt P29323); assay: phosphorylation enrichment, bacterial display (enrichment ratio); higher = better substrate or ligand; peptides without Tyr show the background
AncSZ = assay: as above
FGFR1 = FGFR1 (UniProt P11362); assay: as above
FGFR1, sequence (P11362 whole entry, looked up): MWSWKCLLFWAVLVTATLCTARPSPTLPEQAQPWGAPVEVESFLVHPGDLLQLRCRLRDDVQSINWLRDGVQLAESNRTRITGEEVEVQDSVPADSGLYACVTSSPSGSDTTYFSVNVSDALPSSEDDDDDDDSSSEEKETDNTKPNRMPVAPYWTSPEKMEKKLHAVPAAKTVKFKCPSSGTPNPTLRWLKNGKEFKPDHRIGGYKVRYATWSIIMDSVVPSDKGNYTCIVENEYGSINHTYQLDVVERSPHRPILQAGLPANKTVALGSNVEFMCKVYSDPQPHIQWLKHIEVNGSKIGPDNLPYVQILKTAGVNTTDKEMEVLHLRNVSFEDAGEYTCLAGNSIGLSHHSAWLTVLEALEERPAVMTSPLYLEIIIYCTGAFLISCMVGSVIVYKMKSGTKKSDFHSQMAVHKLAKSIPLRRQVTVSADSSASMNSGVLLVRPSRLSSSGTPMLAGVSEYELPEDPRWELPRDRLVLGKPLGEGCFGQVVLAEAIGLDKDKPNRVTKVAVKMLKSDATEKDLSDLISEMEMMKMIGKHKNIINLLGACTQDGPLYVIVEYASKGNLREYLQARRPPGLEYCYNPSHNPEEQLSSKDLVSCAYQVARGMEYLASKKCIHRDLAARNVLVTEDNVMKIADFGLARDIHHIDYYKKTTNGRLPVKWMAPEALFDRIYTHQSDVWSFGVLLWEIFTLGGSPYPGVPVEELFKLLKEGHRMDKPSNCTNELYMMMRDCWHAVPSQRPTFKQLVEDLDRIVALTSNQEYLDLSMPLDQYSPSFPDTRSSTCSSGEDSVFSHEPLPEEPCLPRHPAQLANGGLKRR

FGFR3 = FGFR3 (UniProt P22607); assay: as above
FGFR3, sequence (P22607 whole entry, looked up): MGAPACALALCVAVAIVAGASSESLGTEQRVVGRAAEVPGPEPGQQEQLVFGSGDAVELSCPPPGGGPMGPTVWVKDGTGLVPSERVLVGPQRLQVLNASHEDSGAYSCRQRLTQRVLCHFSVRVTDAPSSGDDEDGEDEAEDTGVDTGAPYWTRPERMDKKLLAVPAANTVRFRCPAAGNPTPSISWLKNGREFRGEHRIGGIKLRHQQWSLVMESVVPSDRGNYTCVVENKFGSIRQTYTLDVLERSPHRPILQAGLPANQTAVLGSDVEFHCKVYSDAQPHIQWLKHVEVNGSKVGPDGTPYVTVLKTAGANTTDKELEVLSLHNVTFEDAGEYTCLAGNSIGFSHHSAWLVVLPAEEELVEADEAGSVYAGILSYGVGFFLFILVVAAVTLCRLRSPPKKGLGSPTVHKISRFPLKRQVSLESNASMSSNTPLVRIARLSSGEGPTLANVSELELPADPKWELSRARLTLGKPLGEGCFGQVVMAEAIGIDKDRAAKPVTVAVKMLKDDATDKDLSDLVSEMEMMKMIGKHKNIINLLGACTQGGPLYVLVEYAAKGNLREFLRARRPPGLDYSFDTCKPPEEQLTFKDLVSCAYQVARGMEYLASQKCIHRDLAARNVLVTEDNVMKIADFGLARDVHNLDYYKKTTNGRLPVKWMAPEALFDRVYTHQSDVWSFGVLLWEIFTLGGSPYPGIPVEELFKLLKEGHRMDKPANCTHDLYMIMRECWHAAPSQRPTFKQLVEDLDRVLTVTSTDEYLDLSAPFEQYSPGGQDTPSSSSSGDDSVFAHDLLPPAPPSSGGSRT

Hck = Hck (UniProt P08631); assay: as above
EPHB1 = EPHB1 (UniProt P54762); assay: as above
EPHB1, sequence (P54762 whole entry, looked up): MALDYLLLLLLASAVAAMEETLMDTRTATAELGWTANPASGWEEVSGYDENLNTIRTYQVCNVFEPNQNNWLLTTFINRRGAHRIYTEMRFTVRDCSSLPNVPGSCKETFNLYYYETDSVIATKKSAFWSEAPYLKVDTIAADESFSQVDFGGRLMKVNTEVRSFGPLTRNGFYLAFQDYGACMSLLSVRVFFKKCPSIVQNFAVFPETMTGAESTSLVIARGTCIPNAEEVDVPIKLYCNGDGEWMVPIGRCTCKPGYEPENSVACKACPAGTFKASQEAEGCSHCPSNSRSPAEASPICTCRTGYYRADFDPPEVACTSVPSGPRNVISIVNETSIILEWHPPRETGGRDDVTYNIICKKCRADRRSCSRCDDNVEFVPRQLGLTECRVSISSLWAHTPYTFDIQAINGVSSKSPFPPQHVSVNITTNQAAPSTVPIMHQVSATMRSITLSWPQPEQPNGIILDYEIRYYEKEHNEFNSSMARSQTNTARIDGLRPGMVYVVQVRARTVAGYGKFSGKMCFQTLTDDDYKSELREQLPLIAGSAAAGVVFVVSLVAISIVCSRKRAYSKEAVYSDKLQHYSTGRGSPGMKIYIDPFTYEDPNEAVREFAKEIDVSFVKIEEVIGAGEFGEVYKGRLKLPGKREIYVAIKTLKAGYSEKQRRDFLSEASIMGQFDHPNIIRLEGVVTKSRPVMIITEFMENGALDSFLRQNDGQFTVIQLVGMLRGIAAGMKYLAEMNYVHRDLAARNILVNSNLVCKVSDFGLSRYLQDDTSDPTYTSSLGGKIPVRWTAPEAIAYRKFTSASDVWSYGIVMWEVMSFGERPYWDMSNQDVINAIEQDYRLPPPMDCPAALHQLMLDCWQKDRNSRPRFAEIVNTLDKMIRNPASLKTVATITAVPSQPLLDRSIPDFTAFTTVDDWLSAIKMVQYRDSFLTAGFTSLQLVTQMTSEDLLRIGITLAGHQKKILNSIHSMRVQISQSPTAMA

c-Abl (mouse) = assay: as above
Fer (mouse) = assay: as above
MERTK = MERTK (UniProt Q12866); assay: as above
Fes = Fes (UniProt P07332); assay: as above
Fes, sequence (P07332 whole entry, looked up): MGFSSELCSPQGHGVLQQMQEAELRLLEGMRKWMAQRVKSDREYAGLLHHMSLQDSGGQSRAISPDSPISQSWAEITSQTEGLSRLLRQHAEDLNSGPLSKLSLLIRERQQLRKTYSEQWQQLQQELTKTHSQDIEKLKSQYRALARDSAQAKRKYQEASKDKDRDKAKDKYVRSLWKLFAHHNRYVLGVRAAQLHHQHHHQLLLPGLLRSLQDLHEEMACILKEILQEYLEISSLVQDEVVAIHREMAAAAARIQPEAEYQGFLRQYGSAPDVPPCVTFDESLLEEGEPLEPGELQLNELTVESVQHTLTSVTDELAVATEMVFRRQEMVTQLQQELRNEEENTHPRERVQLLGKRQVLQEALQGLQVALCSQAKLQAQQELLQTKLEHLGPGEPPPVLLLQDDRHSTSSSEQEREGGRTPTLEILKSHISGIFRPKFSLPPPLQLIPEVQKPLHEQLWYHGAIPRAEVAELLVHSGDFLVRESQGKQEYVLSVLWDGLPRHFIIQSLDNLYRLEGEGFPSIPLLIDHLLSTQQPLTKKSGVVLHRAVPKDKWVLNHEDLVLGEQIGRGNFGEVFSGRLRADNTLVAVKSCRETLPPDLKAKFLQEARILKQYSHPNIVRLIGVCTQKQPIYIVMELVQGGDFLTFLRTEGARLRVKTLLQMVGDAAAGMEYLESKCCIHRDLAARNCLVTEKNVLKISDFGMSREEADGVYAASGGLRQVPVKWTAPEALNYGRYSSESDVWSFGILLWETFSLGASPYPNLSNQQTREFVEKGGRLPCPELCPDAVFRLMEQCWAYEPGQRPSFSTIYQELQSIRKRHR

Fyn = Fyn (UniProt P06241); assay: as above
Fyn, sequence (P06241 whole entry, looked up): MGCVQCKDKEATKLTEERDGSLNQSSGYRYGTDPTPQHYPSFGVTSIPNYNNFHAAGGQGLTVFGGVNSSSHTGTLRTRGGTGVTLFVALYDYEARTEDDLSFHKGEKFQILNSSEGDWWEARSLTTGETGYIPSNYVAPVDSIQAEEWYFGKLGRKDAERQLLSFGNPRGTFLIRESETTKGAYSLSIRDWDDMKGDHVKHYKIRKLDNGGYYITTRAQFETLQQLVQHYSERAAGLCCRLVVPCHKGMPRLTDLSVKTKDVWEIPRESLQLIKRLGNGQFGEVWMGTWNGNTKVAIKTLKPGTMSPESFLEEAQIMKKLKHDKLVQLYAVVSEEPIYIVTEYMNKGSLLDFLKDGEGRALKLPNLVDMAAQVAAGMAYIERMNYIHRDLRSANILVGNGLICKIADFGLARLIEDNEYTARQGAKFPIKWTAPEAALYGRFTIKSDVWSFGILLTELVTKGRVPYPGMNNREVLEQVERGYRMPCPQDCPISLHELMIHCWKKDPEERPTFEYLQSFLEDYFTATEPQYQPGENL

c-Src = assay: as above
Jak2 = Jak2 (UniProt O60674); assay: as above
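Wherever SH2 binding enrichment of the phosphorylated peptide, bacterial display is given: peptide library displayed on the E. coli surface as eCPX fusions, selected cells deep-sequenced, score is each peptide's frequency after selection divided by its frequency in the input.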
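Wherever phosphorylation enrichment, bacterial display is given: 11-residue human phosphosite peptides and single-mutation variants displayed on the E. coli surface, counted by deep sequencing, each peptide's frequency after selection divided by its frequency in the unselected input library; frequency after pTyr selection over input frequency; kinase dosed for 20-30% of maximal phosphorylation in three min.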

EPHB2, sequence (P29323 whole entry, looked up): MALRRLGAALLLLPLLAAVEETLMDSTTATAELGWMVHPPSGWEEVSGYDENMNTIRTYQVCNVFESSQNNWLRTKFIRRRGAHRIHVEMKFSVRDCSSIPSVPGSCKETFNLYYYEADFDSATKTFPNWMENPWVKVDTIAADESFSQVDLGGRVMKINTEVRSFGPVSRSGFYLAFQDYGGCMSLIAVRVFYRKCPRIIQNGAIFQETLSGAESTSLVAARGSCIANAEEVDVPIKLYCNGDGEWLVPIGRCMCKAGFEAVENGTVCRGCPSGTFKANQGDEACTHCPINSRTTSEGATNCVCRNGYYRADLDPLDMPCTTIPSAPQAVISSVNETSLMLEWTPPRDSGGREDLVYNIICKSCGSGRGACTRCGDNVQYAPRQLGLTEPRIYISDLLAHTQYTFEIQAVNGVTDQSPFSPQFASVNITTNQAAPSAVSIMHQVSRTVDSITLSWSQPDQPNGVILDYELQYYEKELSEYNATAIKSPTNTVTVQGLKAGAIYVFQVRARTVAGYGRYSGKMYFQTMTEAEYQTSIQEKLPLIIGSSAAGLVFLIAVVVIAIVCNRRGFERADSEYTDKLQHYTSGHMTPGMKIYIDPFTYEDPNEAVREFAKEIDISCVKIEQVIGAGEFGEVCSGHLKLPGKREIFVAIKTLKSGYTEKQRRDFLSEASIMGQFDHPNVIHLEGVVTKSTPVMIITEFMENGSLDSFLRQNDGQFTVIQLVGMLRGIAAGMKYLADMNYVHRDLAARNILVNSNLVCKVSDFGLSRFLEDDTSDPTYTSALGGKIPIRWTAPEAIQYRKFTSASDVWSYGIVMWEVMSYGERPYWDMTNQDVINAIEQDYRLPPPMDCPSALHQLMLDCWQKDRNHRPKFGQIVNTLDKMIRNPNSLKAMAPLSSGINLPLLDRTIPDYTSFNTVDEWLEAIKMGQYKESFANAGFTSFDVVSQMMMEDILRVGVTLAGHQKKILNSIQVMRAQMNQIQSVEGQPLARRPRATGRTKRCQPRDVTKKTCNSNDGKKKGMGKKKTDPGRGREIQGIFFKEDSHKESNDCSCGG

| SH2 binding enrichment (c-Src SH2) | SH2 binding enrichment (SHP2-C SH2) | SH2 binding enrichment (Grb2 SH2) | Sequence | phosphorylation enrichment (EPHB2) | phosphorylation enrichment (AncSZ) | phosphorylation enrichment (FGFR1) | phosphorylation enrichment (FGFR3) | phosphorylation enrichment (Hck) | phosphorylation enrichment (EPHB1) | phosphorylation enrichment (c-Abl (mouse)) | phosphorylation enrichment (Fer (mouse)) | phosphorylation enrichment (MERTK) | phosphorylation enrichment (Fes) | phosphorylation enrichment (Fyn) | phosphorylation enrichment (c-Src) | phosphorylation enrichment (Jak2) |
| --- | --- | --- | --- | --- | --- | --- | --- | --- | --- | --- | --- | --- | --- | --- | --- | --- |
| 0.607 | 0.829 | 0.779 | HSDDDYDDPEL [CLNK_Y69] | 0.719 | 1.67 | 0.646 | 0.756 | 0.846 | 0.477 | 1.06 | 0.399 | 0.664 | 1.74 | 0.439 | 0.753 | 1.48 |
| 0.531 | 0.826 | 0.769 | DNQYAYLKAII [HNF4A_Y288_E285Q] | 0.549 | 1.19 | 2.72 | 1.91 | 1.4 | 0.562 | 3.75 | 0.64 | 1.58 | 1.09 | 0.456 | 0.551 | 1.11 |
| 0.807 | 1.04 | 1.13 | GVTLLYYGRDN [ADGRD1_Y85_Y89D] | 0.629 | 0.923 | 0.543 | 0.685 | 1.01 | 0.605 | 0.894 | 0.408 | 0.841 | 1.01 | 0.545 | 0.816 | 1.39 |
| 1.31 | 1.26 | 1.46 | FGAHKYHPLPV [OAT_Y55_N54K_YF] | 0.468 | 0.497 | 0.397 | 0.544 | 0.474 | 0.375 | 0.443 | 0.441 | 0.376 | 0.677 | 0.309 | 0.377 | 0.424 |
| 0.526 | 0.705 | 0.79 | SNKELYEKFMI | 0.539 | 0.859 | 0.507 | 0.543 | 1.45 | 0.571 | 0.559 | 10.2 | 1.51 | 0.872 | 1.14 | 1.78 | 0.894 |
| 0.738 | 0.628 | 0.905 | DLAGRYFALRS [CKB_Y173_K177R_YF] | 0.371 | 0.587 | 0.447 | 0.394 | 0.4 | 0.419 | 0.554 | 0.36 | 0.476 | 0.579 | 0.38 | 0.347 | 0.761 |
| 0.736 | 0.753 | 1.09 | IEDPFYGNDFD [ACP1_Y133_S137F_YF] | 0.644 | 1.27 | 0.548 | 0.806 | 0.595 | 0.83 | 0.79 | 0.509 | 0.392 | 1.21 | 0.566 | 0.544 | 0.972 |
| 0.518 | 0.875 | 0.897 | KAWTIYHPEDS [ZBP1_Y165_R166H] | 0.547 | 0.949 | 0.432 | 0.787 | 0.569 | 0.559 | 0.723 | 0.482 | 0.474 | 1.02 | 0.646 | 0.833 | 0.871 |
| 0.369 | 0.714 | 0.84 | LPPGTYPSDFA [UNC5B_Y511] | 0.412 | 0.744 | 0.543 | 0.595 | 0.461 | 0.482 | 0.565 | 0.5 | 0.424 | 0.96 | 0.451 | 0.422 | 0.791 |
| 0.29 | 0.559 | 0.963 | GVLKEYGGKVL [CPS1_Y529_V531G] | 0.343 | 0.588 | 0.361 | 0.415 | 0.403 | 0.393 | 0.546 | 0.354 | 0.374 | 0.686 | 0.364 | 0.396 | 0.537 |
| 8.36 | 1.57 | 1.09 | QGGRHYMMIVD [GAA_Y438_R437H] | 0.573 | 1.01 | 1.01 | 0.981 | 0.779 | 0.639 | 0.475 | 0.605 | 0.969 | 0.778 | 0.65 | 0.444 | 0.863 |
| 0.304 | 0.453 | 0.838 | RTVDVYFGPQM [KIRREL3_Y332_R336Q] | 0.677 | 1.51 | 0.824 | 0.919 | 1.73 | 1.04 | 1.53 | 0.71 | 0.577 | 1.15 | 1.45 | 1.73 | 1.25 |
| 0.602 | 4.31 | 0.919 | GESSGYLRLAF [MEP1A_Y481_R476G] | 0.49 | 0.964 | 0.559 | 0.696 | 0.451 | 0.536 | 0.752 | 0.507 | 0.464 | 1.02 | 0.474 | 0.459 | 1.02 |
| 0.601 | 0.642 | 0.699 | VKGGAYFPVTV [MCCC2_Y145_YF] | 0.444 | 0.703 | 0.713 | 0.602 | 0.431 | 0.372 | 0.522 | 0.419 | 0.692 | 0.601 | 0.396 | 0.386 | 0.807 |
| 0.471 | 1.15 | 0.798 | KLFYIYTPGTT [SLC27A4_Y245_S247P] | 0.584 | 1.25 | 0.753 | 0.899 | 0.527 | 0.666 | 0.784 | 0.594 | 1.66 | 1.17 | 0.404 | 0.58 | 1.43 |
| 0.665 | 0.627 | 0.733 | FSQNICIQNRN [PKP2_Y631_Y631C_YF] | 0.524 | 0.766 | 0.395 | 0.584 | 0.392 | 0.608 | 0.719 | 0.535 | 0.388 | 0.903 | 0.384 | 0.44 | 0.841 |
| 0.665 | 0.812 | 0.997 | NTVDFYDLFGG [PTPN11_Y63_G60V_YF] | 0.618 | 1.06 | 0.458 | 0.644 | 3.05 | 0.576 | 0.576 | 0.953 | 1.23 | 0.951 | 4.46 | 2.56 | 0.926 |
| 0.976 | 1.15 | 1.48 | PCNLIYFGEHP [TRPV6_Y201] | 0.745 | 3.19 | 1.76 | 1.68 | 2.08 | 1.17 | 2.89 | 1.07 | 2.21 | 2.64 | 3.66 | 12.2 | 3.44 |
| 0.427 | 0.583 | 0.699 | FADIAYNYRRG [PAH_Y166_H170R] | 0.458 | 0.638 | 0.39 | 0.449 | 0.452 | 0.493 | 0.502 | 0.329 | 0.429 | 0.702 | 0.466 | 0.511 | 0.529 |
| 0.479 | 0.569 | 0.81 | SDVSSYLEGQV [GCG_Y110_A115V] | 0.534 | 0.924 | 0.532 | 0.735 | 0.511 | 0.616 | 0.838 | 0.547 | 0.478 | 1.24 | 0.557 | 0.52 | 1.09 |
| 4.6 | 2.66 | 1.18 | PSELYYSKISP [SMG1_Y2254_G2258S] | 3.13 | 2.87 | 11.7 | 8.81 | 17.9 | 6.25 | 4.3 | 23.8 | 23.1 | 2.15 | 6.66 | 8.68 | 6.46 |
| 7.43 | 0.687 | 0.633 | DIRAQYDELAQ [KRT18_Y256_R261Q] | 0.574 | 1.08 | 0.49 | 0.753 | 0.574 | 0.546 | 0.614 | 0.45 | 0.582 | 1.06 | 0.576 | 0.473 | 0.864 |
| 1.27 | 1.61 | 1.5 | IVFVIYDEVVK [SLC25A1_Y297] | 2.01 | 1.16 | 0.53 | 0.863 | 1.44 | 1.9 | 0.888 | 0.708 | 0.576 | 1.19 | 1.03 | 0.855 | 1.26 |
| 0.543 | 0.722 | 0.978 | QEIATHRRLLE [KRT14_Y415_Y415H] | 0.469 | 0.692 | 0.529 | 1.09 | 0.508 | 0.403 | 0.695 | 0.711 | 0.69 | 1.06 | 0.576 | 0.43 | 0.575 |
| 0.468 | 0.453 | 0.676 | FAANFYKLLGN [ROR2_Y646_D644N_YF] | 0.462 | 0.898 | 0.425 | 0.512 | 0.464 | 0.476 | 0.726 | 0.347 | 0.419 | 0.986 | 0.365 | 0.46 | 0.924 |
| 0.552 | 0.596 | 0.723 | SRGLAYPARSA [LEMD2_Y122_P126S] | 0.334 | 0.501 | 0.288 | 0.275 | 0.25 | 0.244 | 0.382 | 0.381 | 0.35 | 0.529 | 0.316 | 0.431 | 0.312 |
| 0.825 | 2.18 | 0.984 | SRPTQYSSFAC [SPEM2_Y104_S108A] | 0.494 | 0.66 | 0.482 | 0.533 | 0.511 | 0.362 | 0.736 | 0.435 | 0.519 | 0.727 | 0.563 | 0.665 | 0.733 |
| 1.05 | 1.16 | 1.19 | VIKDKYPKVRY [APTX_Y209_A212V] | 0.437 | 0.448 | 0.441 | 0.449 | 0.466 | 0.414 | 0.577 | 0.402 | 0.35 | 0.667 | 0.365 | 0.487 | 0.693 |

| Sequence | SH2 binding enrichment (c-Src SH2) | SH2 binding enrichment (SHP2-C SH2) | SH2 binding enrichment (Grb2 SH2) | phosphorylation enrichment (EPHB2) | phosphorylation enrichment (AncSZ) | phosphorylation enrichment (FGFR1) | phosphorylation enrichment (FGFR3) | phosphorylation enrichment (Hck) | phosphorylation enrichment (EPHB1) | phosphorylation enrichment (c-Abl (mouse)) | phosphorylation enrichment (Fer (mouse)) | phosphorylation enrichment (MERTK) | phosphorylation enrichment (Fes) | phosphorylation enrichment (Fyn) | phosphorylation enrichment (c-Src) | phosphorylation enrichment (Jak2) |
| --- | --- | --- | --- | --- | --- | --- | --- | --- | --- | --- | --- | --- | --- | --- | --- | --- |
| DEEDTYTMPST [PTK2_Y407] | 0.469 | 0.563 | 0.869 | 0.627 | 3.8 | 0.568 | 0.776 | 1.83 | 0.528 | 1.12 | 0.691 | 0.657 | 1.29 | 3.77 | 2.94 | 1.25 |
